Assay in all cases: Holdup Multiplex
Test [1] addresses T1, AviTag-His6-MBP-TEVsite-14-3-3γ (human, UniProt P61981 1-247).
T1 sequence (looked up): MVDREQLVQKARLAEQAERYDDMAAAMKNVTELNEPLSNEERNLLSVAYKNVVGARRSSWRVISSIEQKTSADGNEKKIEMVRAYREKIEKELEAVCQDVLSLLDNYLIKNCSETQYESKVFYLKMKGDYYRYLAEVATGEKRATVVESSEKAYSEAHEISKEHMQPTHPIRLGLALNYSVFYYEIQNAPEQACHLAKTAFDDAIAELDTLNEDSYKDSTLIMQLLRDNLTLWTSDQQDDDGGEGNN

Test [2] has as its target T2, AviTag-His6-MBP-TEVsite-14-3-3σ (human, UniProt P31947 1-248).
T2 sequence (looked up): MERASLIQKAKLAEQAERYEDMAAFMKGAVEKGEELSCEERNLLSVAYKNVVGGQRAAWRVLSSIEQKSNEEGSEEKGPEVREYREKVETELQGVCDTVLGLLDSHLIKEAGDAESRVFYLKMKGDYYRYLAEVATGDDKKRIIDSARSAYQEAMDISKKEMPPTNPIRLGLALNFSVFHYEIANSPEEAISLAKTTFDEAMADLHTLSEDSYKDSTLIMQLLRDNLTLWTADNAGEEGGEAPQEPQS

The target of test [3] is T3, AviTag-His6-MBP-TEVsite-14-3-3ε (human, UniProt P62258 1-255).
T3 sequence (looked up): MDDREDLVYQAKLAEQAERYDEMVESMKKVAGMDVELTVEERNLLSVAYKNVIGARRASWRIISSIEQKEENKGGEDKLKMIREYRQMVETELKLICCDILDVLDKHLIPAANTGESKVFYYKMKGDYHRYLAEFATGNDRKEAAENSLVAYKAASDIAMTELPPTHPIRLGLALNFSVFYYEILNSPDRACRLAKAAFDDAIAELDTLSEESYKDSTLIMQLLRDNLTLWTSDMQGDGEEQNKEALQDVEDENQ

The text below walks through data of doi:10.1101/2022.12.08.519103 (bioRxiv, 2022).

Square brackets hold non-standard residues; d marks the D form. Ends that are not written are not given here. pS = N[C@@H](COP(=O)(O)O)C(=O)O

QRISQ[pS]APVK (peptide, UniProt P46937 271-280, looked up, also: phosphoserine at 276 (S4 or S6)) [YAP1 pSer276 phosphopeptide] registered a Kd in test [1] of 0.7 µM.

As for LRRPH[pS]VIGG (peptide, UniProt Q00537 70-79, looked up) [phosphopeptide centered on pSer75 from CDK17], the “Kd ratio between γ and σ” value in test [2] worked out at 60 fold.

On to GARPV[pS]VAGS (peptide, UniProt Q9Y4H2 379-388, looked up, also: phosphoserine at 384 (S6 or S10)) [IRS2 pSer384 phosphopeptide], for which the Kd in test [3] is around 900 µM.

By Kd is commonly meant the concentration at which binding is half-saturated. The low end stands for higher affinity, the high end for lower affinity.
